# Data reported in US20220218790A1 (UNIVERSITY OF SHEFFIELD, published 2022).
# T1: PTH receptor of the PTH responsive cell line UMR-106 (rat osteoblastic like cell line) (rat, UniProt P25961 27-591)
# T1 sequence (looked up): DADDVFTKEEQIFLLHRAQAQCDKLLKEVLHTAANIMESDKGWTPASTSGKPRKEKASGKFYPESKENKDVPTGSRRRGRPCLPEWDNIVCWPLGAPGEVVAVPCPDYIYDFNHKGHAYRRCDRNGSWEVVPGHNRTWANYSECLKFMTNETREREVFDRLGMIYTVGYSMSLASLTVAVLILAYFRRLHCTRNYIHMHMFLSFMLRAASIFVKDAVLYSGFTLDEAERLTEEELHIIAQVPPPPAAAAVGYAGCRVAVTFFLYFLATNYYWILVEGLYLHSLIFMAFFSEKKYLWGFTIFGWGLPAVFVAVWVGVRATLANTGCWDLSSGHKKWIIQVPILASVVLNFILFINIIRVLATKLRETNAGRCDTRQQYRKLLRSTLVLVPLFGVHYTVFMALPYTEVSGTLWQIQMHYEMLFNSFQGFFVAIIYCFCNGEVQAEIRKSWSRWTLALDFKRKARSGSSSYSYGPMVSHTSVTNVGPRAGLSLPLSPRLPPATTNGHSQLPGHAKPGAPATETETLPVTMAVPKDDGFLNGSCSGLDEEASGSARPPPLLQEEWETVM
# Target: T1, PTH receptor of the PTH responsive cell …
# Assay: cell-based or functional assay
Binder,"Dual Luciferase Reporter Assay, fold increase of 14A2c over 14A3b at 100 nM [fold]","Dual Luciferase Reporter Assay, fold increase of 14A2c over 14A3b at 500 nM [fold]","EC50, Dual Luciferase Reporter Assay, UMR-106 cells [nM]","fold increase in cAMP levels over 14A3b, UMR-106 cells, 500 nM [fold]","fold by which PTH is more potent than this fusion (EC50, Dual Luciferase Reporter Assay) [fold]"
14A2c = PTHss-pp-PTH (1-34)-(g4s)4-PTHrExt-(g4s)4-GHbp (other) SVSEIQLMHNLGKHLNSMERVEWLRKKLQDVHNFGGGGSGGGGSGGGGSGGGGSDDVMTKEEQIFLLHRAQAQCEKRLKEVLQRPASIMESDKGWTSASTSGKPRKDKASGKLYPESEEDKEAPTGSRYRGRPCLPEWDHILCWPLGAPGEVVAVPCPDYIYDFNHKGHAYRRCDRNGSWELVPGHNRTWANYSECVKFLTNETREREVFDRLGGGGSGGGGSGGGGSGGGGSFSGSEATAAILSRAPWSLQSVNPGLKTNSSKEPKFTKCRSPERETFSCHWTDEVHHGTKNLGPIQLFYTRRNTQEWTQEWKECPDYVSAGENSCYFNSSFTSIAIPYCIKLTSNGGTVDEKCFSVDEIVQPDPPIALNWTLLNVSLTGIHADIQVRWEAPRNADIQKGWMVLEYELQYKEVNETKWKMMDPILTTSVPVYSLKVDKEYEVRVRSKQRNSGNYGEFSEVLYVTLPQMSQ,~1.3,~1.6,579,11,–
14A3b = GHss-PTH (1-34)-(g4s)4-PTHrExt-(g4s)4-GHbp (other) SVSEIQLMHNLGKHLNSMERVEWLRKKLQDVHNFGGGGSGGGGSGGGGSGGGGSDDVMTKEEQIFLLHRAQAQCEKRLKEVLQRPASIMESDKGWTSASTSGKPRKDKASGKLYPESEEDKEAPTGSRYRGRPCLPEWDHILCWPLGAPGEVVAVPCPDYIYDFNHKGHAYRRCDRNGSWELVPGHNRTWANYSECVKFLTNETREREVFDRLGGGGSGGGGSGGGGSGGGGSFSGSEATAAILSRAPWSLQSVNPGLKTNSSKEPKFTKCRSPERETFSCHWTDEVHHGTKNLGPIQLFYTRRNTQEWTQEWKECPDYVSAGENSCYFNSSFTSIAIPYCIKLTSNGGTVDEKCFSVDEIVQPDPPIALNWTLLNVSLTGIHADIQVRWEAPRNADIQKGWMVLEYELQYKEVNETKWKMMDPILTTSVPVYSLKVDKEYEVRVRSKQRNSGNYGEFSEVLYVTLPQMSQ,–,–,896,–,–
14A7 = PTHss-pp-PTH(1-34)-(g4s)4-GHbp (other) SVSEIQLMHNLGKHLNSMERVEWLRKKLQDVHNFGGGGSGGGGSGGGGSGGGGSFSGSEATAAILSRAPWSLQSVNPGLKTNSSKEPKFTKCRSPERETFSCHWTDEVHHGTKNLGPIQLFYTRRNTQEWTQEWKECPDYVSAGENSCYFNSSFTSIAIPYCIKLTSNGGTVDEKCFSVDEIVQPDPPIALNWTLLNVSLTGIHADIQVRWEAPRNADIQKGWMVLEYELQYKEVNETKWKMMDPILTTSVPVYSLKVDKEYEVRVRSKQRNSGNYGEFSEVLYVTLPQMSQ,–,–,153,–,4.7
